Data: patent US20050136043

How the values were obtained:
GST-Smad1 = GST-Smad1 (UniProt Q15797)
GST-Smad2 (full-length) = GST-Smad2 (full-length) (UniProt Q15796)
GST-Smad3deltaMH1 = GST-Smad3deltaMH1 (UniProt P84022)
Sequence of GST-Smad3deltaMH1 (P84022 137-425, stated change not applied): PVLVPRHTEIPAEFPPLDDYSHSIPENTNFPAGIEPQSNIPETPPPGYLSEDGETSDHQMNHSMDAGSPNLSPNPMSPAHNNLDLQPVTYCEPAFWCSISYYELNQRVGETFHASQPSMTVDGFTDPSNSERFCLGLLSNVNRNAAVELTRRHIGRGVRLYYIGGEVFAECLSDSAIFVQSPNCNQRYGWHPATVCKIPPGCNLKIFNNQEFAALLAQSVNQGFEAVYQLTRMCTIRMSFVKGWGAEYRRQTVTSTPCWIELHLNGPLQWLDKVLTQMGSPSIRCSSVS

Sequence of GST-Smad2 (full-length) (Q15796 whole entry): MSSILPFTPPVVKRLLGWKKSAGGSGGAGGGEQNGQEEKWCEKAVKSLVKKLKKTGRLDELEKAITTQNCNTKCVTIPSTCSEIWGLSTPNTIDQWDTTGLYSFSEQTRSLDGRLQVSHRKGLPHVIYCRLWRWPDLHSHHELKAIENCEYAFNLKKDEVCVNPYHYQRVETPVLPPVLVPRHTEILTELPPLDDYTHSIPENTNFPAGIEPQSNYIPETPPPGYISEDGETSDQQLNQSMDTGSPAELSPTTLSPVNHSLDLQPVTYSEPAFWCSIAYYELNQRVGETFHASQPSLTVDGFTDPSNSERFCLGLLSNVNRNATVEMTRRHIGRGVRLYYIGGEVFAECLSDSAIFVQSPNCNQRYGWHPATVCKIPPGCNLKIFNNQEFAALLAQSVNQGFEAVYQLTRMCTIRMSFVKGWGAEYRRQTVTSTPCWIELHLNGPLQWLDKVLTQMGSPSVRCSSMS
Sequence of GST-Smad1 (Q15797 whole entry): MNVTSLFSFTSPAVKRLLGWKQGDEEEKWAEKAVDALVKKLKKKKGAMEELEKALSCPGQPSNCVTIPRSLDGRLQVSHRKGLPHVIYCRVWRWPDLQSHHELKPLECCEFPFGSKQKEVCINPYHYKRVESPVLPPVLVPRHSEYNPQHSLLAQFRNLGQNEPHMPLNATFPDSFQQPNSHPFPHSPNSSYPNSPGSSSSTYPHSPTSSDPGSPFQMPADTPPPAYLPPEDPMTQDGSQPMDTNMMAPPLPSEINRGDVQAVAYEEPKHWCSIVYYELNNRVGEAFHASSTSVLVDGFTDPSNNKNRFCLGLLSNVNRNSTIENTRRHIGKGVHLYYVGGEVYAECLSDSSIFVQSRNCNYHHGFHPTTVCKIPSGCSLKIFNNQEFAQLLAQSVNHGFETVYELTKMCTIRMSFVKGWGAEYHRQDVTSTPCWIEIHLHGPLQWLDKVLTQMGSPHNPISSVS

GST-TβR-I (GST fused to the cytoplasmic part, residues 148-503, of constitutively active TβR-I T204D, FLAG-tagged at the C-terminus)
phosphorylation of substrate in in vitro kinase assay (32P, SDS-PAGE, phosphorimager) (GST-Smad1): no phosphorylation of GST-Smad1 was observed | phosphorylation of substrate in in vitro kinase assay (32P, SDS-PAGE, phosphorimager) (GST-Smad2 (full-length)): Purified GST-TβR-I kinase efficiently phosphorylated itself, as well as the C-terminal part of Smad3 and full-length GST-Smad2 as exogenous substrates | phosphorylation of substrate in in vitro kinase assay (32P, SDS-PAGE, phosphorimager) (GST-Smad3deltaMH1): Purified GST-TβR-I kinase efficiently phosphorylated itself, as well as the C-terminal part of Smad3 and full-length GST-Smad2 as exogenous substrates
